The target of the series is T1, TLR7 Fc chimera (recombinant human TLR7) (Homo sapiens, UniProt Q9NYK1 27-839).
T1 sequence: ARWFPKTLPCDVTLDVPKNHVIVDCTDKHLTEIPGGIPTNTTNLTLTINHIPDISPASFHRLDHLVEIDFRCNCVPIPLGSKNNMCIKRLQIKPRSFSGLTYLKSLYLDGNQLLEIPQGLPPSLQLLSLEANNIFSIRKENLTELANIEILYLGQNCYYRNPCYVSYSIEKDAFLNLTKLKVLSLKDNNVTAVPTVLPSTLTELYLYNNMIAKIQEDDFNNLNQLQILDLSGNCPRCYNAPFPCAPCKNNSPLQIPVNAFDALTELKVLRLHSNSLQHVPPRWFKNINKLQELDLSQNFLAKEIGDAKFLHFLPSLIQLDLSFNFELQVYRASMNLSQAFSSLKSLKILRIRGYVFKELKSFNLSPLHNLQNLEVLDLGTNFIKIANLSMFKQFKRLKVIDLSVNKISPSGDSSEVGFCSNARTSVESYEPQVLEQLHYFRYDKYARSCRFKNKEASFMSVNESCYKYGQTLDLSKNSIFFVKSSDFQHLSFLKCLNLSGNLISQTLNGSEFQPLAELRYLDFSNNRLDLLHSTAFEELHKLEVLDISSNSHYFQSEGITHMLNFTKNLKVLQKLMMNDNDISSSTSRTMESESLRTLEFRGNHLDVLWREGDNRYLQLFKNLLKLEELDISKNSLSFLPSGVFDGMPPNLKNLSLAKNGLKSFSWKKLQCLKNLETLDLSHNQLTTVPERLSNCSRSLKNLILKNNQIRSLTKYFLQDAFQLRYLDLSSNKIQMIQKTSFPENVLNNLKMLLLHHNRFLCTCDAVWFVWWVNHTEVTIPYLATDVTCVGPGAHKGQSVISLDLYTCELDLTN
Put plainly: fluorescence anisotropy; 10 uM HEPES (so in the source), 150 mM NaCl, 300 uM EDTA, 1 mM DTT, 1% glycerol; pH and temperature not stated; FA: 20 nM RNA, 10-300 nM TLR7, 10 min; EMSA: 100 ng RNA, 1 ug TLR7 in 20 uL, 30 min, 5% polyacrylamide gel. Particulars: protein: commercial; tags: Fc chimera; chain copies: 2; label: 5' FAM. A general note: In fluorescence polarisation assays a small probe gives low polarisation when free and higher when bound to something large.

With GUUGUCAAUGGUCCUUCAA (ssRNA) [XIST1.1], the Kd was determined as 138 nM.
The same measure, in the same setting: the figure for UUGAAGGACAGGUUAAGCU (ssRNA) [RNA9.2a] is 752 nM.
Take AAAAAAAAAAAAAAAAAAA (ssRNA) [polyA]: the binding result is “no binding”.
As to AGCUUAACCUGUCCUUCAA (ssRNA) [RNA9.2s], the Kd was determined as 292 nM.

The term Kd denotes the concentration at which binding is half-saturated.
